In patent US20170204140A1, “ANTAGONISTIC PEPTIDES” (Deakin University, priority 2014, published 2017):
Ends that are not written are not given here.

Experiments:
CHO-APP cells = assay: Aβ secretion from CHO-APP cells, sandwich ELISA; type: cell-based, Chinese hamster; settings: 5 hrs treatment; 1 nM to 1 μM
Description: Cells were treated for 5 hrs with compound concentrations ranging from 1 nM to 1 μM. Aβ secreted in the cell media was quantified using a sandwich ELISA. Data are calculated relative to Aβ secreted from control cells treated with DMSO (vehicle) alone.
Cells are seeded in 12-well plates and treated for 6-24 hrs with peptide or vehicle. After treatment, the cells are examined under a light microscope to evaluate toxicity. Culture media is collected, centrifuged and stored at −20° C. for Aβ ELISA and for sAPPβ analysis. Cells are harvested in PBS and cell pellets collected by centrifugation and frozen at −80° C. until use. Pellets are homogenized in RIPA buffer (0.1% SDS, 0.5% sodium deoxycholate, 1% Triton X-100, 150 mM NaCl in 50 mM Tris-HCl, pH 7.4) to assay for BACE1 enzymatic activity. The data is normalised to protein concentration determined by the BCA.
0.5 μg of mouse monoclonal antibody WO2 (Aβ1-16) is coated in 384-well plates. After blocking with hydrolysed casein and washing with PBS containing 0.05% Tween 20 (PBS-T), biotinylated IE8 antibody (Aβ18-22) (20 ng dilution in 10 μL blocking buffer) is added followed by culture media samples (50 μL/well). A standard curve of Aβ peptide (0.03-3 ng/well) is run in parallel. […] The plates are read in a Wallac Victor 2 Multicounter instrument and data calculated relative to the Aβ peptide standard curve.

BACE1 = BACE1 (Homo sapiens, UniProt P56817); assay: BACE1 inhibition assay based on cleavage of fluorogenic APP substrate; type: biochemical; settings: peptide 100 nM and 200 nM; versus 0 nM control
Description: The peptide concentrations of 100 nM and 200 nM show a significant (*) difference to the upper limit when compared with the negative control. The mean fluorescent units are a representation of the cleaved product of APP by BACE1 (P<0.0 5).
A fluorescent BACE1 activity assay kit (Sigma-Aldrich, NSW, Australia), is used to not only show the cleavage of APP by BACE1, but also the inhibitors' ability to prevent cleavage of APP by BACE1. A measurement of fluorescence expresses the resulting cleaved APP product, which indirectly measures the activity of BACE1 in cleaving APP. Assays are conducted in triplicate with (1, 10, 100 and 1000 nM) or without the peptide inhibitors, as negative controls. Commercially available BACE1 inhibitors (STA-200 and Merck Compound IV) are used as references. Data derived from assays at various substrate concentrations are used to determine Ki values and the mode of inhibition (competitive/allosteric) using the Lineweaver-Burk method.

endogenous BACE1 = target: T1, endogenous BACE1 (Homo sapiens, UniProt P56817); assay: BACE1 enzyme activity assay on M17 human neuroblastoma cell lysate; type: biochemical; settings: 200 nM peptide
T1 construct: endogenous in cells; host or cells: M17 human neuroblastoma cells (lysate)
Description: (§1) The M17 cell lysate was subjected to BACE1 enzyme activity assay and was read on a fluorometer in duplicate with one experimental group of a positive control, without the peptide inhibitor (0 nM), and an experimental group, with an added 200 nM concentration of the peptide inhibitor. […] The mean fluorescent units are a representation of the cleaved product of APP by BACE1 (P<0.0 5). This indicates the production of BACE1 in cultured human neuronal cells and the usefulness of this cell line.
as §1, with “5).” for “5). This indicates the production of BACE1 in cultured human neuronal cells and the usefulness of this cell line.”
The CelLytic extraction kit (Sigma-Aldrich) is used to prepare total protein extracts from M17 cells, with protein concentrations determined by BCA protein assay (Thermo Scientific Pierce, NH, USA), following the manufacturer's instructions.
Cell lysates obtained above are subjected to BACE1 enzyme assays, as described above.

[1] = system: JAK-STAT6 signaling in HEK-Blue cells; assay: JAK-STAT6 signaling in HEK-Blue cells (SEAP reporter, QUANTI-Blue); type: cell-based
Description: Positive Control (PC) included cells treated with IL-4 cytokine alone. Control 1 (C1) included cells incubated with peptide antagonist only and Control 2 (C2) included cells without any treatment. The results represent the mean of 3 replicates within an experiment and the error bars show standard deviation. P<0.05* denotes significance of optical density (OD) readings compared to positive control (PC).
The percentage values represented here are a reflection of treatments used in FIG. 9 (75 μM, 150 μM and 225 μM). […] Positive control is denoted at 0%, which is used as a referral point for the standard value at which inhibition begins.
Activation of this pathway leads to SEAP secretion in the supernatant and is easily detected using QUANTI-Blue medium that changes colour to purple/blue in the presence of SEAP, following manufacturer's instructions. Cells are grown and maintained in DMEM medium with 10% FCS at 37° C. in a 5% CO2-humidified chamber, following the manufacturer's instructions and established cell culture techniques. […]
In FIG. 9, six treatment wells were used in total; 4 wells treated with peptide N1 and 2 wells without peptide as positive and negative controls (shown in results section). […] The subsequent results were read using an xMark microplate absorbance spectrophotometer (Bio-Rad) at a wavelength of 640 nm

IL-13 binding to IL-4Rα = target: T2, IL-13 binding to IL-4Rα (Homo sapiens, UniProt P24394); assay: Inhibition ELISA of IL-13 binding to IL-4Rα; settings: pre-incubation of IL-4Rα with nM amounts of the peptide
T2 construct: purchased SBH Sciences (IL-4Rα); Sigma-Aldrich (IL-13)
T2 sequence (P24394 26-232 limits assumed): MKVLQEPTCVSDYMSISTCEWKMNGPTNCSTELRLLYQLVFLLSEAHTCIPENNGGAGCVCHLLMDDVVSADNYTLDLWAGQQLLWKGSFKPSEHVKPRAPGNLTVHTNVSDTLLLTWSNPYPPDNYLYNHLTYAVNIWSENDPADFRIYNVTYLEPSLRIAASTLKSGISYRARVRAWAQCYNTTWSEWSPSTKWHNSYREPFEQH
Description: (§2) After extensive washing, HRP will be colorimetrically detected with the substrate o-phenylenediamine (Sigma-Aldrich) and read at 492 nm, according to our established protocols.

IL-4 binding to IL-4Rα = target: T3, IL-4 binding to IL-4Rα (Homo sapiens, UniProt P24394); assay: Inhibition ELISA of IL-4 binding to IL-4Rα; settings: pre-incubation of IL-4Rα with nM amounts of the peptide
T3 construct: purchased SBH Sciences (IL-4Rα); Sigma-Aldrich (IL-4)
T3 sequence (P24394 26-232 limits assumed): T2 sequence (P24394 26-232 limits assumed)
Description: as §2

T1 sequence (P56817 46-501): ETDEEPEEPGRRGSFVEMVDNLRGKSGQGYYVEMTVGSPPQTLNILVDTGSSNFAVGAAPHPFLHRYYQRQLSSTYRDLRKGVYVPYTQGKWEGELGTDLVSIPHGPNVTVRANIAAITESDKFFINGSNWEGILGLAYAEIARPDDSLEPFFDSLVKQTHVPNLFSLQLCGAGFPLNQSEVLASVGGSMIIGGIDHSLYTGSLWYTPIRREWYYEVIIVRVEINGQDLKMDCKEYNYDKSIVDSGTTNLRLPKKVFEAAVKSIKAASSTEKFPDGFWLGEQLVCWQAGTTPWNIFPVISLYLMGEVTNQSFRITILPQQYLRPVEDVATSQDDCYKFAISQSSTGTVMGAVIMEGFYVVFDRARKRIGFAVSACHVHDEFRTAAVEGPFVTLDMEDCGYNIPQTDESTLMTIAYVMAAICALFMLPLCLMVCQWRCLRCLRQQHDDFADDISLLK
Chain of BACE1 (P56817 46-501, species assumed): as the sequence (P56817 46-501) above

Row | Compound | Aβ secreted in the cell media relative to DMSO control (CHO-APP cells) | inhibition of BACE1 activity (BACE1) | inhibition of endogenous BACE1 activity (endogenous BACE1) | inhibition of JAK-STAT6 signaling ([1]; 225 μM peptide, IL-4 stimulated HEK-Blue cells, dose-dependent (75, 150, 225 μM)) | JAK-STAT6 signaling triggered by peptide alone ([1]; peptide without IL-4) | reduction of IL-13 binding to IL-4Rα (IL-13 binding to IL-4Rα) [%] | reduction of IL-4 binding to IL-4Rα (IL-4 binding to IL-4Rα) [%]
1 | C[C@@H](NC(=O)c1cc(C(=O)N[C@@H](Cc2ccccc2)[C@H](O)CNC2CC2)cc(N(C)S(C)(=O)=O)c1)c1ccccc1 [Compound IV] | inhibits Aβ secretion in a dose dependent manner | – | – | – | – | – | –
2 | FHESWPTFLSPS [peptide antagonist] | – | more than 40% | more than 50% | up to 59% | did not trigger a non-specific JAK-STAT6 signaling | 50 | 25
